Target: FcRn β2-microglobulin complex (UniProt P55899)
Experiment: BLI

Chain of UniProt P55899 (P55899 24-365, chain 1 of 2): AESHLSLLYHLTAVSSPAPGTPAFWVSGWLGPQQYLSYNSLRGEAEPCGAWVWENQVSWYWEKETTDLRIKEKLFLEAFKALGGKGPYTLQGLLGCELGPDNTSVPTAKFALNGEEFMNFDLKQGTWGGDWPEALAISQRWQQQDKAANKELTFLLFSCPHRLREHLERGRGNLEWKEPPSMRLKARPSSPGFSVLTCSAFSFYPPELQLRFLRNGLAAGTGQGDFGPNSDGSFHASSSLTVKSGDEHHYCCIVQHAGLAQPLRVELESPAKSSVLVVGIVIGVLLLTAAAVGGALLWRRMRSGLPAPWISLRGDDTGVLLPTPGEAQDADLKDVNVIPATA
Chain of UniProt P55899 (P61769 21-119, chain 2 of 2, further chain): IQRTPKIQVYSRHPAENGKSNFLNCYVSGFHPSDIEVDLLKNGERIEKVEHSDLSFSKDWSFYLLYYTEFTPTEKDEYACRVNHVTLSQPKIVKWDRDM

Substance: single-chain IgG atezolizumab (scAtezo) (antibody)
- Kd: 6.2 nM
